Results: US7141656
Blank lines part the entries; values can stand above or below the molecule they belong to.

Assays:
[1] = biological target: full-length murine I-A^d/OVA 323-339 MHC class II fusion complex (pJRS165.1) expressed on NSO cells (mouse; chicken) (UniProt P04228); experiment: flow cytometry, FITC-conjugated isotype matched irrelevant antibody 1:100, clone NSO/IA^d/OVA.B4
[2] = biological target: full-length murine I-A^d/OVA 323-339 MHC class II fusion complex (pJRS165.1) expressed on NSO cells (mouse; chicken) (UniProt P04228); experiment: flow cytometry, FITC-conjugated isotype matched irrelevant antibody 1:100, clone NSO/IA^d/OVA.B2
[3] = biological target: full-length murine I-A^d/OVA 323-339 MHC class II fusion complex (pJRS165.1) expressed on NSO cells (mouse; chicken) (UniProt P04228); experiment: flow cytometry, FITC-conjugated isotype matched irrelevant antibody 1:100, clone NSO/IA^d/OVA.B5
[4] = biological target: full-length murine I-A^d/OVA 323-339 MHC class II fusion complex (pJRS165.1) expressed on NSO cells (mouse; chicken) (UniProt P04228); experiment: flow cytometry, FITC-conjugated isotype matched irrelevant antibody 1:100, clone NSO/IA^d/OVA.A4
[5] = biological target: murine class II MHC molecule I-A^d on A20.1-11 cells (mouse) (UniProt P04228); experiment: flow cytometry, FITC-conjugated isotype matched irrelevant antibody 1:100, A20.1 cells (+ control)
[6] = biological target: soluble single-chain I-A^d-OVA (SSC1 gene; 6xHis tag), produced in SF9 insect cells (mouse (I-A^d); chicken (OVA peptide)); experiment: sandwich I-A^d ELISA, M5/114 capture, biotinylated AMS-32.1 probe; supernatant of virus clone C6
[7] = biological target: soluble single-chain I-A^d-OVA (SSC1 gene; 6xHis tag), produced in SF9 insect cells (mouse (I-A^d); chicken (OVA peptide)); experiment: sandwich I-A^d ELISA, M5/114 capture, biotinylated AMS-32.1 probe, 405 nm; cotransfection supernatant diluted 1:2
[8] = biological target: Neuron Specific Enolase (NSE), in supernatant of SF9 cells infected with a recombinant Baculovirus; experiment: sandwich I-A^d ELISA, M5/114 capture, biotinylated AMS-32.1 probe; supernatant of SF9 cells infected with NSE Baculovirus
[9] = biological target: soluble single-chain I-A^d-OVA with EE antibody tag (SCE1 gene), secreted by transfected NSO cells (mouse (I-A^d); chicken (OVA peptide)); experiment: sandwich I-A^d ELISA of Example 18 (M5/114 capture, biotinylated AMS-32.1 probe); undiluted supernatant of E11 (SCE1 transfectant)
[10] = biological target: membrane-bound single-chain I-A^d-OVA (SCT1 gene, with the alpha chain transmembrane domain) on transfected NS-0 cells (mouse (I-A^d); chicken (OVA peptide)); experiment: flow cytometry, FITC-conjugated AMS 32.1 1:100, T12 (SCT1-transfectant) cells
[11] = biological target: soluble single-chain I-A^d-OVA (SSC1 gene; 6xHis tag), produced in SF9 insect cells (mouse (I-A^d); chicken (OVA peptide)); experiment: sandwich I-A^d ELISA, M5/114 capture, biotinylated AMS-32.1 probe, 405 nm; cotransfection supernatant undiluted
[12] = biological target: soluble single-chain I-A^d-OVA (SSC1 gene; 6xHis tag), produced in SF9 insect cells (mouse (I-A^d); chicken (OVA peptide)); experiment: sandwich I-A^d ELISA, M5/114 capture, biotinylated AMS-32.1 probe, 405 nm; cotransfection supernatant diluted 1:8
[13] = biological target: soluble single-chain I-A^d-OVA (SSC1 gene; 6xHis tag), produced in SF9 insect cells (mouse (I-A^d); chicken (OVA peptide)); experiment: sandwich I-A^d ELISA of Example 18 (M5/114 capture, biotinylated AMS-32.1 probe); sc I-A^d-OVA from insect cell culture (positive control)
[14] = biological target: membrane-bound single-chain I-A^d-OVA (SCT1 gene, with the alpha chain transmembrane domain) on transfected NS-0 cells (mouse (I-A^d); chicken (OVA peptide)); experiment: flow cytometry, FITC-conjugated AMS 32.1 1:100, T6 (SCT1-transfectant) cells
[15] = biological target: membrane-bound single-chain I-A^d-OVA (SCT1 gene, with the alpha chain transmembrane domain) on transfected NS-0 cells (mouse (I-A^d); chicken (OVA peptide)); experiment: flow cytometry, FITC-conjugated AMS 32.1 1:100, T2 (SCT1-transfectant) cells
[16] = biological target: soluble single-chain I-A^d-OVA (SSC1 gene; 6xHis tag), produced in SF9 insect cells (mouse (I-A^d); chicken (OVA peptide)); experiment: sandwich I-A^d ELISA, M5/114 capture, biotinylated AMS-32.1 probe, 405 nm; cotransfection supernatant diluted 1:4
[17] = biological target: soluble single-chain I-A^d-OVA (SSC1 gene; 6xHis tag), produced in SF9 insect cells (mouse (I-A^d); chicken (OVA peptide)); experiment: sandwich I-A^d ELISA, M5/114 capture, biotinylated AMS-32.1 probe; supernatant of virus clone F8
[18] = biological target: soluble single-chain I-A^d-OVA with EE antibody tag (SCE1 gene), secreted by transfected NSO cells (mouse (I-A^d); chicken (OVA peptide)); experiment: sandwich I-A^d ELISA of Example 18 (M5/114 capture, biotinylated AMS-32.1 probe); undiluted supernatant of E10 (SCE1 transfectant)
[19] = biological target: membrane-bound single-chain I-A^d-OVA (SCT1 gene, with the alpha chain transmembrane domain) on transfected NS-0 cells (mouse (I-A^d); chicken (OVA peptide)); experiment: flow cytometry, FITC-conjugated 10-3.6 1:100 (negative control), T2 (SCT1-transfectant) cells
[20] = biological target: membrane-bound single-chain I-A^d-OVA (SCT1 gene, with the alpha chain transmembrane domain) on transfected NS-0 cells (mouse (I-A^d); chicken (OVA peptide)); experiment: flow cytometry, FITC-conjugated 10-3.6 1:100 (negative control), T12 (SCT1-transfectant) cells
[21] = biological target: membrane-bound single-chain I-A^d-OVA (SCT1 gene, with the alpha chain transmembrane domain) on transfected NS-0 cells (mouse (I-A^d); chicken (OVA peptide)); experiment: flow cytometry, FITC-conjugated 10-3.6 1:100 (negative control), T6 (SCT1-transfectant) cells
[22] = biological target: T cell receptor of the murine T cell hybridoma DO11.10 (specific for OVA 323-339 in the context of I-A^d) (mouse); experiment: cell-based or functional assay

peak channel fluorescence [1]: 11
peak channel fluorescence [2]: 14
peak channel fluorescence [3]: 10
peak channel fluorescence [4]: 34
peak channel fluorescence [5]: 5
Molecule: FITC-conjugated anti-IA^k antibody (Pharmingen), isotype matched irrelevant antibody, Example 13

Absorbance [6]: 1.56
Absorbance [7]: 0.524
Absorbance [8]: 0.098
Absorbance [9]: 0.96
Mean Fluorescence [10]: 911
Absorbance [11]: 0.857
Absorbance [12]: 0.165
Absorbance [13]: 2.44
Mean Fluorescence [14]: 418
Mean Fluorescence [15]: 613
Absorbance [16]: 0.305
Absorbance [17]: 1.45
Absorbance [18]: 0.781
Molecule: AMS-32.1 anti-IA^d monoclonal antibody (PharMingen)

Mean Fluorescence [19]: 22
Mean Fluorescence [20]: 45.9
Mean Fluorescence [21]: 45.1
Molecule: 10-3.6 anti-I-A^k antibody (PharMingen), isotype matched negative control

IL-2 ELISA result (Absorbance), DO11.10 with T2 (SCT1 transfectant) cells [22]: 0.758
IL-2 ELISA result (Absorbance), DO11.10 with T6 (SCT1 transfectant) cells [22]: 0.307
IL-2 ELISA result (Absorbance), DO11.10 with T12 (SCT1 transfectant) cells [22]: 1.03
B1: membrane-bound single-chain I-A^d-OVA (SCT1 gene, with the alpha chain transmembrane domain) on transfected NS-0 cells (peptide-MHC)
chain: TMALQIPSLLLSAAVVVLMVLSSPRTLSISQAVHAAHAEINEAGRASGGGGSGGGGNSERHFVVQFKGECYYTNGTQRIRLVTRYIYNREEYVRYDSDVGEYRAVTELGRPDAEYWNSQPEILERTRAEVDTACRHNYEGPETSTSLRRLEQPNVAISLSRTEALNHHNTLVCSVTDFYPAKIKVRWFRNGQEETVGVSSTQLIRNGDWTFQVLVMLEMTPHQGEVYTCHVEHPSLKSPITVEWTSGGGGSGGGGSGGGGSGGGGSSSEDDIEADHVGFYGTTVYQSPGDIGQYTHEFDGDELFYVDLDKKKTVWRLPEFGQLILFEPQGGLQNIAAEKHNLGILTKRSNFTPATNEAPQATVFPKSPVLLGQPNTLICFVDNIFPPVINITWLRNSKSVTDGVYETSFLVNRDHSFHKLSYLTFIPSDDDIYDCKVEHWGLEEPVLKHWEPEIPAPMSELTETVVCALGLSVGLVGIVVGTIFIIQGLRSGGTSRHPGPL

IL-2 concentration in DO11 super (U/ml) at 39 ng/well immobilized scIA^d-OVA, extended dilution [22]: 0 U/ml
IL-2 concentration in DO11 super (U/ml) at 78 ng/well immobilized sc IA^d-OVA [22]: 45 U/ml
IL-2 concentration in DO11 super (U/ml) at 78 ng/well immobilized scIA^d-OVA, extended dilution [22]: 17 U/ml
IL-2 concentration in DO11 super (U/ml) at 156 ng/well immobilized sc IA^d-OVA [22]: 100 U/ml
IL-2 concentration in DO11 super (U/ml) at 156 ng/well immobilized scIA^d-OVA, extended dilution [22]: 24 U/ml
IL-2 concentration in DO11 super (U/ml) at 312 ng/well immobilized sc IA^d-OVA [22]: 109 U/ml
IL-2 concentration in DO11 super (U/ml) at 312 ng/well immobilized scIA^d-OVA, extended dilution [22]: 35 U/ml
IL-2 concentration in DO11 super (U/ml) at 625 ng/well immobilized sc IA^d-OVA [22]: 116 U/ml
IL-2 concentration in DO11 super (U/ml) at 625 ng/well immobilized scIA^d-OVA, extended dilution [22]: 38 U/ml
IL-2 concentration in DO11 super (U/ml) at 1250 ng/well immobilized sc IA^d-OVA [22]: 126 U/ml
IL-2 concentration in DO11 super (U/ml) at 2500 ng/well immobilized sc IA^d-OVA [22]: 143 U/ml
IL-4 concentration in DO11 super (U/ml) at 78 ng/well immobilized sc IA^d-OVA [22]: 7 U/ml
IL-4 concentration in DO11 super (U/ml) at 156 ng/well immobilized sc IA^d-OVA [22]: 10 U/ml
IL-4 concentration in DO11 super (U/ml) at 312 ng/well immobilized sc IA^d-OVA [22]: 16 U/ml
IL-4 concentration in DO11 super (U/ml) at 625 ng/well immobilized sc IA^d-OVA [22]: 15 U/ml
IL-4 concentration in DO11 super (U/ml) at 1250 ng/well immobilized sc IA^d-OVA [22]: 20 U/ml
IL-4 concentration in DO11 super (U/ml) at 2500 ng/well immobilized sc IA^d-OVA [22]: 23 U/ml
IL-r [IL-4] concentration in DO11 super (U/ml) at 39 ng/well immobilized scIA^d-OVA, extended dilution [22]: 0 U/ml
IL-r [IL-4] concentration in DO11 super (U/ml) at 78 ng/well immobilized scIA^d-OVA, extended dilution [22]: 0.8 U/ml
IL-r [IL-4] concentration in DO11 super (U/ml) at 156 ng/well immobilized scIA^d-OVA, extended dilution [22]: 0.9 U/ml
IL-r [IL-4] concentration in DO11 super (U/ml) at 312 ng/well immobilized scIA^d-OVA, extended dilution [22]: 1.5 U/ml
IL-r [IL-4] concentration in DO11 super (U/ml) at 625 ng/well immobilized scIA^d-OVA, extended dilution [22]: 2 U/ml
B2: soluble single-chain I-A^d-OVA (SSC1 gene; 6xHis tag), produced in SF9 insect cells (peptide-MHC)
chain: TMALQIPSLLLSAAVVVLMVLSSPRTLSISQAVHAAHAEINEAGRASGGGGSGGGGNSERHFVVQFKGECYYTNGTQRIRLVTRYIYNREEYVRYDSDVGEYRAVTELGRPDAEYWNSQPEILERTRAEVDTACRHNYEGPETSTSLRRLEQPNVAISLSRTEALNHHNTLVCSVTDFYPAKIKVRWFRNGQEETVGVSSTQLIRNGDWTFQVLVMLEMTPHQGEVYTCHVEHPSLKSPITVEWTSGGGGSGGGGSGGGGSGGGGSSSEDDIEADHVGFYGTTVYQSPGDIGQYTHEFDGDELFYVDLDKKKTVWRLPEFGQLILFEPQGGLQNIAAEKHNLGILTKRSNFTPATNEAPQATVFPKSPVLLGQPNTLICFVDNIFPPVINITWLRNSKSVTDGVYETSFLVNRDHSFHKLSYLTFIPSDDDIYDCKVEHWGLEEPVLKHWSRASHHHHHH
